Data reported in patent CN117586402A (HEFEI TIANGANG IMMUNOLOGY PHARMACEUTICAL CO LTD, dated 2024).

Target: T1, NKp80 on human primary T cells and NK cells (人PBMC中CD3+ T细胞和CD56+ NK细胞) (人 (human), UniProt Q9NZS2 1-231)
T1 construct: whole, on cells; also called 人原代T细胞和NK细胞
T1 sequence (looked up): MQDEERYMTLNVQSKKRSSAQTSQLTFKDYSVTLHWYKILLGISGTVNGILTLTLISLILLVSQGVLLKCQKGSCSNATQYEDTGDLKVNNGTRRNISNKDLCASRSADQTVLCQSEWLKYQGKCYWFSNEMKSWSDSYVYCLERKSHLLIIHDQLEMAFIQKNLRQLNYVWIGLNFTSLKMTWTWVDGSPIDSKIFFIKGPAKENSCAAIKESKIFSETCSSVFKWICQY
Experiment: flow cytometry on human PBMC, CD3+ cells

binding result: binds
B1: 嵌合NKp80抗体(53G7) (antibody, human IgG1, V domains shown)
VH: EVQLQQSGPELVNPGASVKISCKTSGYTFTDYYMNWVKQSHGKSLEWIGDIHPNNGGTSYNQKFKGKATLTVDKSSSTAYMELRSLTSEDSAVYYCARDYGGTYTNWAQNYFDYWGQGTTLTVSS
VL: DIVQTQSPASLAVSLGQRATISCRASQSVSTPSYSYMHWYQQKPGQPPKLLIKYASNLESGVPARFSGSGSGTDFTLNIHPVEEEDTATYYCQHSWEIPWTFGGGTKLEIKA
notes: also called 53G7抗体; 抗人NKp80抗体53G7
